# Measured values: patent US20250289873A1 (published 2025)
# Target: hCFHR4
# Assay: SPR kinetics
row,Binder,Kd [nM]
1,"ATX-P-602 (antibody, V domains shown) VH: not shown VL: EIVLTQSPGTLSLSPGERATLSCRASQSVSSSYLAWYQQKPGQAPRLLIYGASSRATGIPDRFSGSGSGTQFTLTISSLQSEDFAVYYCQQYGSSPWTFGQGTKVDIKR",33
2,"ATX-P-580 (antibody, V domains shown) VH: QVQLQESGPGLVKPSGTLSLTCAVSGGSISTSDWWTWVRQPPGKGLEWIGEIYHSGSTNYNPSLKSRVTISVDKSKNQFSLKLSSVTAADTAVYYCADWYFDLWGRGTLVTVSS VL: DIQMTQSPSSLSASVGDRVTITCRASQGIRNDLGWYQQKPGKAPKRLIYAASSLQSGVPSRFSGSGSGTEFTLAISSLQPEDFATYYCLHFNSYPFTFGPGTKVDIKR",31.9
3,"ATX-P-574 (antibody, V domains shown) VH: EVQLVESGGGLVQRGGSLRLSCVASGFTFSSYAMSWVRQAPGKGLEWVSVISGSGGTTYYADSVKGRFTISRDDSKKTLYLQMNSLRAEDTAVYYCAKRGDYGDYMDVWGKGTTVTVSS VL: DIQMTQSPSSVSASVGDRVTITCRASQGITTWLAWYQQKPGKAPKLLIFGASSLESGVPSRFSGSGSGTDFTLTISSLQPEDFATYYCQQANSFPWTFGQGTKVEIKR",5.9
4,"ATX-P-560 (antibody, V domains shown) VH: QVQLQQSGPGLVKPSQTLSLTCAISGDSVSSNTAAWNWIRQSPSRGLEWLGRTYYRSKWYNDYAVSVKSRITINPDTSKNQFSLQLSSVTPQDTAIYYCASDNWNNGGPGFDPWGQGTLVTVSS VL: DIQMTQSPSSVSTSVGDRVTITCRASQGISSWLAWYQQKPGKAPKLLISAASSLQSGVPSRFSGSGSGTDFTLTISTLQPEDFASYYCQQANSFPPTFGQGTRVEIKR",2.12
5,"ATX-P-601 (antibody, V domains shown) VH: QVQLVQSGAEVKKPGASVKVSCKASGYTFTSYYMHWVRQAPGQGLEWMGIINPSGGSTNYAQKFQGRLTMTRDTSTNTVYMELSSLRSEDTAVYYCATDQSGGMDVWGKGTTVTVSS VL: DIQMTQSPSSLSASVGDRVTITCRASQSINIYLNWYQQKPEKDPKLLIYAASSLQSGVPSRFSGSGSGTDFTLTISNLQPEDFATYYCQQSYSTPITFGQGTRLEIKR",18.2
6,"ATX-P-571 (antibody, V domains shown) VH: QVQLQESGPGLVKPSGTLSLTCAVSGGSISSRNWWSWVRQPPGKGLEWIGEIYHGGTTNYNPSLKSRVTISVDKSKNQFSLKLSSVTAADTAVYYCARGGLRLGELSPNAFDIWGQGTMVTVSS VL: DIQMTQSPSSLSASVGDRVTITCRASQSISSYLNWYQQKPGKAPKVLIYAASSLQSGIPSRFSGSGSGTDFTLTISSLQPEDFATYYCQETYSVPLTFGGGTKVEIKR",27.4
7,"ATX-P-607 (antibody, V domains shown) VH: QVQLVQSGAEVKKPGASVKVSCKASGYTFTSYYMHWVRQAPGQGLEWMGIINPSGGSTSYAQKFQGRVTMTRDTSTNTVYMELSSLRSEDTAVYYCARDPEYSSAFDIWGQGTMVTVSS VL: DIQMTQSPSSLSASVGDRGTITCRASQSIRSYLNWYQQKPGKAPKLLIYAASSLQSGVPSRFSGSGSGTDFTLTISSLQPEDFATYYCQQSYRTPVTFGPGTKVDIKR",7.97
8,"ATX-P-588 (antibody, V domains shown) VH: EVQLVESGGGLVQPGRSLRLSCAASGFTFEDYAMHWVRQAPGKGLEWVSGISWNSGSIGYADSVKGRFTISRDNAKKSLYLQMNSLRAEDTALYYCTKDRDDGYNYAGVFDYWGQGTLVTVSS VL: not shown",6.87
9,"ATX-P-608 (antibody, V domains shown) VH: QVQLQESGPGLVKPSGTLSLTCAVSGGSISSSNWWSWVRQSPGKGLEWIGEIYHTGSTNKKPSLKSRVIISVDKSKNQFSLKLISVNAADTAIYYCARDREGGTTEAFDIWGQGTMVTVSS VL: EIVMTQSPATLSVSPGERATLSCRASQSVSSNLAWYQQKPGQAPRLLIYGASTRATGIPVRFSGSGSGTQFTLTISSLQSEDFAVYYCQQYDNWRTFGQGTRLEIKR",0.347
10,"ATX-P-583 (antibody, V domains shown) VH: QVQLVQSGAEVKKPGASVKVSCKASGYTFTTYGISWVRQAPGQGLEWMGWISAYSGNTHYAQSLQDRVTMTTDTSTSTAYMEVRSLRSDDTAVYYCAKDEGYCSSTGCLNLFDPWGQGTLVTVSS VL: DIQMTQSPSSLSASVGDRVTITCRASQNIGSYLNWYQQKPGNAPKLLIYATSTLQSGVPSRFSGSGSGTDFTLIISSLHPEDFTVYYCQQSFIIPFTFGPGTKVDIKR",0.317
11,"ATX-P-570 (antibody, V domains shown) VH: QVQLQESGPGLVKPSETMSLTCTVSGGSFTGYYWSWIRQPPGKGLEWIGYVHYSGGTKSNPSLKSRVTISVDTSKNQFSLKLSSVTAADTAVYYCARERYEWNSYFDYWGQGTLVTVSS VL: not shown",10.5

# More lines, in order of falling Kd, values ahead:
row,Kd [nM],Binder
1,31.9,"ATX-P-561 (antibody, V domains shown) VH: QVQLQQSGPGLVKPSQTLSLTCAISGDSVSSNSAAWNWIRQSPSRGLEWLGRTYYRSKWYNGYAVSMKSRITINPDTSKNQFSLQLNSVTPEDTAMYYCAREGVGATTGFDYWGQGTLVTVSS VL: DIQMTQSPSSLSASVGDRVTITCRASQGISSWLTWYQQKPGKAPKLLIYAASSLQGGVPSRFSGSGSGTDFTLTISSLQPEDFATYYCQQANSFPPTFGQGTKVEIKR"
2,4.98,"ATX-P-609 (antibody, V domains shown) VH: QVQLQESGPGLVKPSGTLSLTCAVSGGSISSSNWWSWVRQPPGKGLEWIGEIYHSGSTNYNPSLKSRVTISVDKSKNQFSLKLRSVTAADTAVYYCARDQLSSGPTDAFDIWGQGTMVTVSS VL: EIVMTQSPATLSVSPGERATLSCRASQSVSSNLAWYQQKPGQAPRLLIYGASTRATGIPVRFSGSGSGTQFTLTISSLQSEDFAVYYCQQYDNWRTFGQGTKLEIKR"
3,1.5,"ATX-P-572 (antibody, V domains shown) VH: QVQLQQSGPGLVKPSQTLSLTCAISGDSVSSNSAAWNWIRQSPSRGLEWLGMTYYRSKWYSVFAVSVKSRITINTDTSKNQFSLQLNSVTPEDTAVYYCAREGGIVGATPFDYWGQGTLVTVSS VL: not shown"
4,1.46,"ATX-P-579 (antibody, V domains shown) VH: QVQLQESGPGLVKPSGTLSLTCAVSGASISTSNWWTWVRQPPGKGLEWIGEIYHDGSTNYSPSLQSRVTISVDKSKNQFSLTLTSVTAADTAIYYCGDFYIDVWGNGTTVTVSS VL: DIQMTQSPSSLSASVGDRVTITCRASQGIRKDLGWYQQKPGKAPKRLIYTASTLQSGVPSRFSGSGSGTEFTLTISSLQPEDFATYYCLQYNNYPFTFGPGTKVDIKR"
5,0.487,"ATX-P-562 (antibody, V domains shown) VH: QVQLQQSGPGLVKSSQTLSLTCAISGDTVSSNSAAWNWIRQSPSRGLEWLGRTFYRSRWSAAYAASVSSRITINPDTSKNQFSLQLTSVTPADTAVYYCAREGVGSSTGFDYWGQGTLVTVSS VL: DIQMTQSPSSVSASIGDRVTITCRASKGISIWLAWYQQKPGKAPKVLISAASSLQSGAPSRFSGSGSGTDFTLTISSLQPEDFATYYCQQANSFPPTFGQGTKVEIKR"
6,0.168,"ATX-P-597 (antibody, V domains shown) VH: QVQLVQSGAEVKKPGASVKVSCKASGYTFTNYYMQWVRQAPGQGLEWLGIIDPSGGSTTYAQKFQGRVTMTRDTSTSTVHMELRSLRSEDTAVYYCARDEGTDRPGWGYWGQGTLVTVSS VL: DIQMTQSPSSLSASIGDRVTITCRASQSISSYLDWYQRKSGKAPKLLIYAASSLQSGVPSRFSGSGSGTDFTLTISSLQPEDFATYYCQQSYSTPLTFGGGTKVDIKR"
